Like-named read-outs stand apart in the source and are kept apart here. Bridges are numbered along the chain shown (N, C = ends). Primed or numbered codes have the meaning given here. [ ]: non-standard residue; d: D form. Ygp(4) = Tyr with amino-capped PEG8 (O-(8x polyethylene glycol-amino)-tyrosine); Yn3(4) = Tyr with azide-capped PEG9 (O-(9x polyethylene glycol-azido)-tyrosine); Ygp = O-(8x polyethylene glycol-amino)-tyrosine (Tyr, amino-capped PEG8); Yn3 = O-(9x polyethylene glycol-azido)-tyrosine (Tyr, azide-capped PEG9); cleavable peptide‑PEG9‑glutaryl = not defined here; Ygp″ = O-(8x polyethylene glycol-amino)-tyrosine; Yn3″ = O-(9x polyethylene glycol-azido)-tyrosine; PEG4′ = 4x polyethylene glycol; PEG9′ = 9x polyethylene glycol; hSer = N[C@@H](CCO)C(=O)O; Nle = CCCC[C@H](N)C(=O)O
T1: IL-2 receptor βγ complex (human, UniProt P14784 27-551; P31785 23-369)
T1 sequence (looked up) 1: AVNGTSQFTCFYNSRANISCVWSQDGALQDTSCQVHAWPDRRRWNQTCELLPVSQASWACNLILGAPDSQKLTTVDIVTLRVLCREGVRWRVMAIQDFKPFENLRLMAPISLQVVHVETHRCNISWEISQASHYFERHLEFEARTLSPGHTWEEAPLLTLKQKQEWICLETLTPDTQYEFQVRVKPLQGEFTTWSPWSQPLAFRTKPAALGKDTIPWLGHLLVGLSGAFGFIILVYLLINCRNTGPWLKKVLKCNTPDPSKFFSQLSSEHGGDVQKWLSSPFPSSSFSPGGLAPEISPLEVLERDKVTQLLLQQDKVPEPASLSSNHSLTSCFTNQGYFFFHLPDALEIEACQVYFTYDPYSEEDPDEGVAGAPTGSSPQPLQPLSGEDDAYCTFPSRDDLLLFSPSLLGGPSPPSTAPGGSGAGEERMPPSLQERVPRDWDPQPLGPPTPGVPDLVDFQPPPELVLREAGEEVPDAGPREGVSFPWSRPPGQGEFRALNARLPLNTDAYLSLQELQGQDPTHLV
T1 sequence (looked up) 2: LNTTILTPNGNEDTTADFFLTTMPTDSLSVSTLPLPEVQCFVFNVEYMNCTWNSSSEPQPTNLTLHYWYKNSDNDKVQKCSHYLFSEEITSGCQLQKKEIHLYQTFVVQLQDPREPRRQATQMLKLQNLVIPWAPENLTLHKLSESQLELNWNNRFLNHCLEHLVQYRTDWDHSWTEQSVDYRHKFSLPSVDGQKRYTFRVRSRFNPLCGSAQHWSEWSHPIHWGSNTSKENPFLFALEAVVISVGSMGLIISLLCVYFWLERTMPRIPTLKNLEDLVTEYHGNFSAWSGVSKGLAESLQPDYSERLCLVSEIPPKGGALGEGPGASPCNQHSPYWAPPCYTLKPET


How the values were obtained:
Experiment in all cases: cell-based or functional assay
IL-2 receptor βγ complex [1] = molecular target: T1, IL-2 receptor βγ complex
IL-2 receptor βγ complex [2] = molecular target: T1, IL-2 receptor βγ complex; remark: listed apart in the source
IL-2 receptor βγ complex [3] = molecular target: T1, IL-2 receptor βγ complex; remark: listed apart in the source

| Binder | Average EC50, pSTAT5 Assay (T cells) (IL-2 receptor βγ complex [1]) | Average EC50, pSTAT5 Assay in NK cells (IL-2 receptor βγ complex [2]) | Average EC50, pSTAT5 Assay (T cells) (IL-2 receptor βγ complex [3]) |
| --- | --- | --- | --- |
| CMP-160 (ligand, bridge N-34; not fully specified (bridges); ends not checked) GPLGLAG[PEG9′]APTSSSTKKTQLQLEHLLLDLQ[Nle]ILEGINNYKNPKLTR[Nle]L[hSer][Yn3(4)]KF[Ygp(4)][Nle]PKKATELKHLQCLEEELKPLEEVL[hSer]LAQSKNFHLRPRDLISNINVIVLELKGSETTF[hSer]CEYADETATIVEFLNRWITFSQSIISTLT | 27.8 nM | – | – |
| CMP-159 (ligand, bridge N-28; not fully specified (N-terminus, bridges); ends not checked) PLGLAGAPTSSSTKKTQLQLEHLLLDLE[Nle]ILNGINNYKNPKLTR[Nle]L[hSer][Yn3(4)]KF[Ygp(4)][Nle]PKKATELKHLQCLEEELKPLEEVL[hSer]LAQSKNFHLRPRDLISNINVIVLELKGSETTF[hSer]CEYADETATIVEFLNRWITFSQSIISTLT | 35.5 nM | – | – |
| CMP-136 (ligand, bridge N-37; not fully specified (bridges); ends not checked) [PEG9′]PLGLAG[PEG9′]APTSSSTKKTQLQLEHLLLDLQ[Nle]ILNGIENYKNPKLTR[Nle]L[hSer][Yn3]KF[Ygp][Nle]PKKATELKHLQCLEEELKPLEEVL[hSer]LAQSKNFHLRPRDLISNINVIVLELKGSETTF[hSer]CEYADETATIVEFLNRWITFSQSIISTLT | 40.5 nM | 2.17 nM | – |
| CMP-151 (ligand, linker N-23 via cleavable peptide‑PEG9‑glutaryl; reading uncertain) APTSSSTKKTQLQLEHLLLDLQKILNGINNYKNPKLTR[Nle]L[hSer][Yn3″]KF[Ygp″][Nle]PKKATELKHLQCLEEELKPLEEVL[hSer]LAQSKNFHLRPRDLISNINVIVLELKGSETTF[hSer]CEYADETATIVEFLNRWITFSQSIISTLT | 28.2 nM | 2.51 nM | – |
| CMP-157, MMP2 cleaved molecule (ligand, not fully specified (bridges); also: MMP2 cleaved, site not given here) PLGLAGAPTSSSTKKTQLQLEHLLEDLQ[Nle]ILNGINNYKNPKLTR[Nle]L[hSer][Yn3″]KF[Ygp″][Nle]PKKATELKHLQCLEEELKPLEEVL[hSer]LAQSKNFHLRPRDLISNINVIVLELKGSETTF[hSer]CEYADETATIVEFLNRWITFSQSIISTLT | 10 nM | – | – |
| CMP-158 (ligand, bridge N-30; not fully specified (bridges); ends not checked) GPLGLAG[PEG4′]APTSSSTKKTQLQLEHLLLDLE[Nle]ILNGINNYKNPKLTR[Nle]L[hSer][Yn3(4)]KF[Ygp(4)][Nle]PKKATELKHLQCLEEELKPLEEVL[hSer]LAQSKNFHLRPRDLISNINVIVLELKGSETTF[hSer]CEYADETATIVEFLNRWITFSQSIISTLT | 36.6 nM | – | – |
| CMP-158, MMP2 cleaved molecule (ligand, not fully specified; ends and bridges not checked; also: MMP2 cleaved, cleavage site and linker fragments on N-terminus and Glu22 side chain not given here) APTSSSTKKTQLQLEHLLLDLE[Nle]ILNGINNYKNPKLTR[Nle]L[hSer][Yn3(4)]KF[Ygp(4)][Nle]PKKATELKHLQCLEEELKPLEEVL[hSer]LAQSKNFHLRPRDLISNINVIVLELKGSETTF[hSer]CEYADETATIVEFLNRWITFSQSIISTLT | 1.95 nM | – | – |
| CMP-159, MMP2 cleaved molecule (ligand, not fully specified (bridges); ends and bridges not checked; also: MMP2 cleaved, site not given here) PLGLAGAPTSSSTKKTQLQLEHLLLDLE[Nle]ILNGINNYKNPKLTR[Nle]L[hSer][Yn3(4)]KF[Ygp(4)][Nle]PKKATELKHLQCLEEELKPLEEVL[hSer]LAQSKNFHLRPRDLISNINVIVLELKGSETTF[hSer]CEYADETATIVEFLNRWITFSQSIISTLT | 2.27 nM | – | – |
| CMP-138 (ligand, bridge (positions not given here); not fully specified (bridges); ends not checked) [PEG4′]SGGPGPAGMKGLPGS[PEG4′]APTSSSTKKTQLQLEHLLLDLQ[Nle]ILNGIENYKNPKLTR[Nle]L[hSer][Yn3]KF[Ygp][Nle]PKKATELKHLQCLEEELKPLEEVL[hSer]LAQSKNFHLRPRDLISNINVIVLELKGSETTF[hSer]CEYADETATIVEFLNRWITFSQSIISTLT | 20.1 nM | 1.88 nM | – |

The remaining lines, values ahead:

| Average EC50, pSTAT5 Assay (T cells) (IL-2 receptor βγ complex [1]) | Average EC50, pSTAT5 Assay in NK cells (IL-2 receptor βγ complex [2]) | Average EC50, pSTAT5 Assay (T cells) (IL-2 receptor βγ complex [3]) | Binder |
| --- | --- | --- | --- |
| 0.758 nM | – | – | CMP-162, MMP2 cleaved molecule (ligand, not fully specified; ends and bridges not checked; also: MMP2 cleaved, cleavage site and linker fragment on Lys23 side chain not given here) APTSSSTKKTQLQLEHLLLDLQKILNGINNYKNPKLTR[Nle]L[hSer][Yn3(4)]KF[Ygp(4)][Nle]PKKATELKHLQCLEEELKPLEEVL[hSer]LAQSKNFHLRPRDLISNINVIVLELKGSETTF[hSer]CEYADETATIVEFLNRWITFSQSIISTLT |
| – | – | 31.4 nM | CMP-164 (ligand, bridge N-23; not fully specified (bridges); ends not checked; also: sequence of the cleavable peptide in the bridge not given here) APTSSSTKKTQLQLEHLLLDLQKILNGINNYKNPKLTR[Nle]L[hSer][Yn3]KF[Ygp][Nle]PKKATELKHLQCLEEELKPLEEVL[hSer]LAQSKNFHLRPRDLISNINVIVLELKGSETTF[hSer]CEYADETATIVEFLNRWITFSQSIISTLT |
| 2.21 nM | – | – | CMP-160, MMP2 cleaved molecule (ligand, not fully specified; ends and bridges not checked; also: MMP2 cleaved, cleavage site and linker fragments on N-terminus and Glu26 side chain not given here) APTSSSTKKTQLQLEHLLLDLQ[Nle]ILEGINNYKNPKLTR[Nle]L[hSer][Yn3(4)]KF[Ygp(4)][Nle]PKKATELKHLQCLEEELKPLEEVL[hSer]LAQSKNFHLRPRDLISNINVIVLELKGSETTF[hSer]CEYADETATIVEFLNRWITFSQSIISTLT |
| – | – | 0.76 nM | CMP-163, MMP2 cleaved molecule (ligand, not fully specified; ends and bridges not checked) APTSSSTKKTQLQLEHLLLDLQKILNGINNYKNPKLTR[Nle]L[hSer][Yn3(4)]KF[Ygp(4)][Nle]PKKATELKHLQCLEEELKPLEEVL[hSer]LAQSKNFHLRPRDLISNINVIVLELKGSETTF[hSer]CEYADETATIVEFLNRWITFSQSIISTLT |
| 29.4 nM | – | – | CMP-161 (ligand, bridge N-32; not fully specified (N-terminus, bridges); ends not checked) PLGLAGAPTSSSTKKTQLQLEHLLLDLQ[Nle]ILEGINNYKNPKLTR[Nle]L[hSer][Yn3(4)]KF[Ygp(4)][Nle]PKKATELKHLQCLEEELKPLEEVL[hSer]LAQSKNFHLRPRDLISNINVIVLELKGSETTF[hSer]CEYADETATIVEFLNRWITFSQSIISTLT |
| 3.59 nM | – | – | CMP-161, MMP2 cleaved molecule (ligand, not fully specified (bridges); ends and bridges not checked; also: MMP2 cleaved, site not given here) PLGLAGAPTSSSTKKTQLQLEHLLLDLQ[Nle]ILEGINNYKNPKLTR[Nle]L[hSer][Yn3(4)]KF[Ygp(4)][Nle]PKKATELKHLQCLEEELKPLEEVL[hSer]LAQSKNFHLRPRDLISNINVIVLELKGSETTF[hSer]CEYADETATIVEFLNRWITFSQSIISTLT |
| 2.79 nM | – | – | CMP-162 (ligand, ends and bridges not checked; also: further groups not given here) APTSSSTKKTQLQLEHLLLDLQKILNGINNYKNPKLTR[Nle]L[hSer][Yn3(4)]KF[Ygp(4)][Nle]PKKATELKHLQCLEEELKPLEEVL[hSer]LAQSKNFHLRPRDLISNINVIVLELKGSETTF[hSer]CEYADETATIVEFLNRWITFSQSIISTLT |

Reference: US20240376170A1 (BRIGHT PEAK THERAPEUTICS, published 2024)
